The record followed here is article PMC8766471, “Mutations affecting the N-terminal domains of SHANK3 point to different pathomechanisms in neurodevelopmental disorders” (Scientific Reports, 2022).

Sequences and labels used below:
B1: Shank3 Ank repeats (residues 99-348), WT, recombinant (domain or fragment, rat, UniProt Q9JLU4 99-348, looked up)
chain: QNLIDDKQFAKLHTKANLKKFMDYVQLHSTDKVARLLDKGLDPNFHDPDSGECPLSLAAQLDNATDLLKVLRNGGAHLDFRTRDGLTAVHCATRQRNAGALTTLLDLGASPDYKDSRGLTPLYHSALGGGDALCCELLLHDHAQLGTTDENGWQEIHQACRFGHVQHLEHLLFYGANMGAQNASGNTALHICALYNQESCARVLLFRGANKDVRNYNSQTAFQVAIIAGNFELAEVIKTHKDSDVVPFRE
notes: Shank3, rat, Ank repeats, residues 99-348; expressed from pET-SUMO; also called WT Ank; WT Ank domain; source: E. coli BL21*(DE3), purified (HisTrap HP, SUMO protease, reverse HisTrap pass)
B2: isolated SPN domain of Shank3, recombinant (domain or fragment, rat, UniProt Q9JLU4 1-92, looked up)
chain: MDGPGASAVVVRVGIPDLQQTKCLRLDPTAPVWAAKQRVLCALNHSLQDALNYGLFQPPSRGRAGKFLDEERLLQDYPPNLDTPLPYLEFRY
notes: Shank3 SPN domain, isolated; the methods of expression list only residues 1-348 and 99-348; also called WT SPN

Test [1] has as its target B2. The test is described as follows: ITC; 25 °C; 20 mM Tris pH 7.5, 1 M NaCl, 0.5 mM TCEP; 25 µM SPN in the cell, 400 µM WT Ank or P141A Ank in the syringe; single-site-binding model. The note with it: both partners purified. On the technique in general: In ITC the heat of successive injections is recorded.
Test [2] concerns the target B1. Described as above. The note with it: both partners purified.

Take B1: the dH in test [1] is -15.5 kJ/mol.

One may read the Kd as the constant that tells how readily two partners part at equilibrium. On to B2, for which the Kd in test [2] was determined as 19 µM.
